One substance from article PMC11638070 can be followed below.

For the test, the target named is mitochondrial heat shock protein 60 V72I (mtHsp60^V72I) (human) (UniProt P10809).

With “mtHsp10 (from UniProt P61604 1-102) (natural protein)”, the steady-state ATPase activity of mtHsp60^V72I (500 nM monomer) against mtHsp10 (twofold series from 10 µM monomer); ~21 pmol ATP per min without mtHsp10 stood at 31 pmol/min.
